Measured values as given in publication PMC6177252, “Transcription factors Rv0081 and Rv3334 connect the early and the enduring hypoxic response of Mycobacterium tuberculosis”.

B1: FAM-Fragment 1 (dsDNA)
DNA 1: CACATGTACCCAGTGTTAACCTTCTAGTGCACTAGAAGGTCAAGGGGAGTCGC
DNA 2: GCGACTCCCCTTGACCTTCTAGTGCACTAGAAGGTTAACACTGGGTACATGTG
B2: FAM-Fragment 3 (dsDNA)
DNA 1: TGTCGATGGTTGTTCTCATCTGGTAACTCCTTTCCGCAGGCCGCAATTCAGCG
DNA 2: CGCTGAATTGCGGCCTGCGGAAAGGAGTTACCAGATGAGAACAACCATCGACA
B3: Fragment 5 (-40 to -10) (dsDNA)
DNA 1: GTTAACCTTCTAGTGCACTAGAAGGTCAAG
DNA 2: CTTGACCTTCTAGTGCACTAGAAGGTTAAC
B4: Fragment 6 (-73 to -40) (dsDNA)
DNA 1: CGCCCGCACTGCTGGCGGCTCACATGTACCCAGT
DNA 2: ACTGGGTACATGTGAGCCGCCAGCAGTGCGGGCG
B5: Fragment 1 (-53 to 0) (dsDNA)
DNA 1: B1 DNA 1
DNA 2: B1 DNA 2
B6: Fragment 2 (-103 to -54) (dsDNA)
DNA 1: GTATGGGCTCACCGAGATCAGGCTCGTCACGATCGCCCGCACTGCTGGCGGCT
DNA 2: AGCCGCCAGCAGTGCGGGCGATCGTGACGAGCCTGATCTCGGTGAGCCCATAC
B7: Fragment 3 (-153 to -104) (dsDNA)
DNA 1: B2 DNA 1
DNA 2: B2 DNA 2
B8: Fragment 4 (-203 to -154) (dsDNA)
DNA 1: GGATGGTCATAGTGGCGTCGGGCGCCAGGCCTGCGCGGGCACACGCGGTGCGG
DNA 2: CCGCACCGCGTGTGCCCGCGCAGGCCTGGCGCCCGACGCCACTATGACCATCC
B9: Fragment a (-54 to -25) (dsDNA)
DNA 1: CACATGTACCCAGTGTTAACCTTCTAGTGC
DNA 2: GCACTAGAAGGTTAACACTGGGTACATGTG
B10: Fragment b (-54 to -17) (dsDNA)
DNA 1: CACATGTACCCAGTGTTAACCTTCTAGTGCACTAGAAG
DNA 2: CTTCTAGTGCACTAGAAGGTTAACACTGGGTACATGTG
B11: Fragment c (-54 to -9) (dsDNA)
DNA 1: CACATGTACCCAGTGTTAACCTTCTAGTGCACTAGAAGGTCAAGGG
DNA 2: CCCTTGACCTTCTAGTGCACTAGAAGGTTAACACTGGGTACATGTG

These binders were tested against T1, Rv0081 (Mycobacterium tuberculosis H37Rv, UniProt P9WMI7 1-114) (assay: EMSA). Conditions: protein: recombinant; tags: His-tag (pET28b); chain copies: 2; label: FAM; blunt.
T1 sequence: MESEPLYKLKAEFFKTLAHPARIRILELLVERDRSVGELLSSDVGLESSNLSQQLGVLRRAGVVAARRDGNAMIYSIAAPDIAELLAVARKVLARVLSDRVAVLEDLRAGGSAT

Binder | binding result
B1 | binds
B2 | binds

The binders below were run against T1, Rv0081 (assay: EMSA; 288-576 ng Rv0081). Conditions: protein: recombinant; tags: His-tag (pET28b); chain copies: 2; blunt.

Binder | binding result
B3 | no binding
B4 | no binding

What follows are binders tested against T1, Rv0081 (assay: EMSA; 576 ng Rv0081). Conditions: protein: recombinant; tags: His-tag (pET28b); chain copies: 2; blunt.

Binder | binding result
B5 | binds
B6 | no binding
B7 | binds
B8 | no binding
B9 | no binding
B10 | no binding
B11 | no binding
